Source: US20170218091A1 (AbbVie / Abbott, published 2017)

Target: T1, Human recombinant TNFα (rhTNFα) (human, UniProt P01375 77-233)
T1 construct: Soluble recombinant cytokine added to L929 cells; also called huTNFα; human TNF
Assay: SPR (BIAcore); antibody captured on a goat anti-huIgG Fc surface, huTNF injected at 25 nM

T1 sequence (P01375 77-233 limits assumed): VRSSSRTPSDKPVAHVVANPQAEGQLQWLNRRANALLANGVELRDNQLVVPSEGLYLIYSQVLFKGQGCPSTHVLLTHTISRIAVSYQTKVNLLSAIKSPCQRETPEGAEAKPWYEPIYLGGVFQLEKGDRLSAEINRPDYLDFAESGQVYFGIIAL

- Stoichiometry: 2
B1: AB441 (antibody, V domains shown)
VH: EVQLVQSGAEVKKPGASVKVSCKASGYTFANYGIIWVRQAPGQGLEWMGWINTYTGKPTYAQKFQGRVTMTTDTSTSTAYMELSSLRSEDTAVYYCARKLFTTMDVTDNAMDYWGQGTTVTVSS
VL: DIQMTQSPSSLSASVGDRVTITCRASQDISQYLNWYQQKPGKAPKLLIYYTSRLQSGVPSRFSGSGSGTDFTLTISSLQPEDFATYFCQQGNTWPPTFGQGTKLEIKR
